{
  "source": "paper doi:10.1101/2021.01.05.425367",
  "about": "(bioRxiv, 2021)",
  "target": "T1, LolB-Strep (E. coli, UniProt P61320 22-207)",
  "T1 sequence (looked up)": "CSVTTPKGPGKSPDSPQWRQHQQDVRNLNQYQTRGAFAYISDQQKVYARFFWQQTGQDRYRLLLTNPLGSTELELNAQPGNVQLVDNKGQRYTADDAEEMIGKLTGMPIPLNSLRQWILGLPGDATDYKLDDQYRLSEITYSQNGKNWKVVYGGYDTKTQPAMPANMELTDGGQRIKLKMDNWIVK",
  "experiment": "pull-down",
  "data": [
    {"binder": "wild-type RcsF (natural protein, E. coli, UniProt P69411 16-134, looked up, acylated (lipidated) N-terminal cysteine, the first residue of the mature lipoprotein) CSMLSRSPVEPVQSTAPQPKAEPAKPKAPRATPVRIYTNAEELVGKPFRDLGEVSGDSCQASNQDSPPSIPTARKRMQINASKMKANAVLLHSCEVTSGTPGCYRQAVCIGSALNITAK", "values": [
      {"measurement": "binding result", "value": "binds"}
    ]}
  ]
}
